Target: T1, DR4 receptor (human, UniProt O00220 24-239, limits assumed)
T1 construct: The construct used in the ELISA is not described
Experiment: receptor binding ELISA

T1 sequence (O00220 24-239 H141R/R209T limits assumed): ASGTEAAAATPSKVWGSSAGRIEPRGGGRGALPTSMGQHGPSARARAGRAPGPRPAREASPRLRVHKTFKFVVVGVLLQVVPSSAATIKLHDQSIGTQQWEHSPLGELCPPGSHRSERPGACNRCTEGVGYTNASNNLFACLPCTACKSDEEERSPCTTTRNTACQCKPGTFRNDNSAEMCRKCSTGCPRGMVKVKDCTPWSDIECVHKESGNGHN

EC50 [mg/L] | Binder
0.0045 | PEG-R170C-Apo2L.0(32176-78) (ligand, Cys170 either carries methoxy-PEG-maleimide, MW 2,000 D, or is in a disulfide bond with Cys170 of another trimer; rest blocked with iodoacetamide, the number of chains is therefore not one value; also called partially PEGylated and disulfide crosslinked R170C-Apo2L.0; PEG-R170C-Apo2L.0 lot 32176-78) VRERGPQRVAAHITGTRGRSNTLSSPNSKNEKALGRKINSWESSRSGHSFLSNLHLCNGELVIHEKGFYYIYSQTYFRFQEEIKENTKNDKQMVQYIYKYTSYPDPILLMKSARNSCWSKDAEYGLYSIYQGGIFELKENDRIFVSVTNEHLIDMDHEASFFGAFLVG
0.0422 | PEG-R170C-Apo2L.0 (32176-87C) (ligand, methoxy-PEG-maleimide, MW 2,000 D, on Cys170 (one PEG per monomer); residual unpegylated Cys170 carboxyamidomethylated with iodoacetamide, also called PEG-2K-R170C-Apo2L.0; R170C-PEG-2K) VRERGPQRVAAHITGTRGRSNTLSSPNSKNEKALGRKINSWESSRSGHSFLSNLHLCNGELVIHEKGFYYIYSQTYFRFQEEIKENTKNDKQMVQYIYKYTSYPDPILLMKSARNSCWSKDAEYGLYSIYQGGIFELKENDRIFVSVTNEHLIDMDHEASFFGAFLVG
